B1: Sliding clamp, P04525 (parent)
chain: MKLSKDTTALLKNFATINSGIMLKSGQFIMTRAVNGTTYAEANISDVIDFDVAIYDLNGFLGILSLVNDDAEISQSEDGNIKIADARSTIFWPAADPSTVVAPNKPIPFPVASAVTEIKAEDLQQLLRVSRGLQIDTIAITVKEGKIVINGFNKVEDSALTRVKYSLTLGDYDGENTFNFIINMANMKMQPGNYKLLLWAKGKQGAAKFEGEHANYVVALEADSTHDF

Variants of: B1
Conditions: Enterobacteria phage T4; pH 7.4; 25 °C; Urea; CD; Sodium Phosphate Buffer; structure 1CZD; whole UniProt chain shown

Q: For MKLSKDTTALLKNFATINSGIMLKSGQFIMTRAVNGTTYAEANISDVIDFDVAIYDLNGFLGILSLVNDDAEISQSEDGNIKIADARSTIFFPAADPSTVVAPNKPIPFPVASAVTEIKAEDLQQLLRVSRGLQIDTIAITVKEGKIVINGFNKVEDSALTRVKYSLTLGDYDGENTFNFIINMANMKMQPGNYKLLLWAKGKQGAAKFEGEHANYVVALEADSTHDF [W92F], which “denaturant midpoint (higher = more stable)” value is on record?
A: Its value is 2 M.

Same assay, conditions: Enterobacteria phage T4; pH 7.4; 25 °C; Urea; CD; Sodium Phosphate Buffer; transition: 3; structure 1CZD; whole UniProt chain shown

Q: With MKLSKDTTALLKNFATINSGIMLKSGQFIMTRAVNGTTYAEANISDVIDFDVAIYDLNGFLGILSLVNDDAEISQSEDGNIKIADARSTIFWPAADPSTVVAPNKPIPFPVASAVTEIKAEDLQQLLRVSRGLQIDTIAITVKEGKIVINGFNKVEDSALTRVKYSLTLGDYDGENTFNFIINMANMKMQPGNYKLLLFAKGKQGAAKFEGEHANYVVALEADSTHDF [W199F] as the variant, how does the “denaturant midpoint (higher = more stable)” value read?
A: The value was 1.9 M.

Source: FireProtDB (doi:10.1021/acs.biochem.5b01204)
